Results taken from patent US20240279345A1, “ALPHA 5 BETA 1 INTEGRIN BINDING AGENTS AND USES THEREOF” (PASITHEA THERAPEUTICS CORP., priority 2021, published 2024).

How the values were obtained:
[1] = target: rh-α5β1 protein bound to human FN protein (Homo sapiens, UniProt P05556+P08648); experiment: SPR dissociation of rh-α5β1 bound to FN; type: biochemical; details: 1 μM antibody injected for 250s after 400 nM rh-α5β1; 25° C.
Procedure: Surface Plasmon Resonance (SPR) and a cell-based assay were used to test the effect of the antibodies on the dissociation of rh-α5β1 protein bound to human FN protein. The antibodies tested are representatives of the two groups of antibodies identified in Example 6 that define two different epitope binding groups and have distinct ligand blocking properties. […] In addition, the small molecule antagonist cyclic RGD (cRGD; Creative-Peptides, Shirley, New York, 11967, cat. no. CP22175) was tested as a comparator that inhibits α5β1 integrin binding to FN by competing at the ligand binding pocket.
Description of the SPR method used: FN protein dissolved in water was manually printed onto the bare gold-coated (thickness 47 nm) PlexArray Nanocapture Sensor Chip (Plexera Bioscience, Seattle, WA) at 40% humidity. The chip was incubated in 80% humidity at 4° C. for overnight and rinsed with 10×PBST (0.1M phosphate buffer, 1.54M NaCl, pH7.4, 0.5% Tween20) for 10 minutes (min), 1×PBST (0.01M phosphate buffer pH7.4, 0.154M NaCl, 0.05% Tween20) for 10 min, and deionized water twice for 10 min. The chip was then blocked with 5% (w/v) non-fat milk in water overnight, and washed with 10×PBST for 10 min, 1×PBST for 10 min, and deionized water twice for 10 min before being dried under a stream of nitrogen prior to use. SPR measurements were performed using PlexArray HT (Plexera Bioscience, Seattle, WA), a high-throughput surface plasmon resonance imaging (SPRi) platform. Collimated light (660 nm) passes through the coupling prism, reflects off the SPR-active gold surface, and is received by the CCD camera. Buffers and samples were injected by a non-pulsatile piston pump into the 30 μL flow cell that was mounted on the coupling prim. […] SPR binding responses (a.u.) were recorded and plotted over time.

[2] = target: T1, recombinant human α5β1 integrin (rh-α5β1) (Homo sapiens, UniProt P05556+P08648); experiment: Plate-based ELISA reactivity to rh-α5β1; type: binding; details: selected for further characterization among α5 specific hybridomas (28 selected)
T1 construct: purchased R&D Systems 3230-A5
Procedure: The 249 positive hybridoma supernatants selected as described in Example 1 were screened for reactivity to rh-α5β1 in a plate-based ELISA. Immulon4 HBX ELISA 96-well plates (Thermo Fisher Scientific, Waltham, MA, cat. no. 3855) were coated with rh-α5β1 (R&D Systems, Minneapolis, MN 55413, cat. no. 3230-A5), at 1 μg/mL in PBS supplemented with 0.5 mM MgCl2, MnCl2 and CaCl2 and incubated overnight at 4° C. Plates were washed 3 times with Wash Buffer (1× Tris Buffered Saline containing 0.05% Tween20), blocked with 2% BSA in 1×TBS (made from 10× Thermo Scientific Blocker BSA (10×) in TBS; Thermo Fisher Scientific, Waltham, MA, cat. no. 37520) for 2 hours at room temperature (RT) then incubated with hybridoma supernatants diluted 1:10 with Standard Diluent (2% BSA, 1×TBS, 0.05% Tween20). Following a 1 hour incubation at RT, wells were washed 3 times, incubated with biotinylated goat anti-mouse secondary antibody at 1:8000 dilution (Invitrogen, Carlsbad, CA, cat. no. 62-6540) for 1 hour, washed 3 times, then incubated for 30 minutes with poly-HRP Streptavidin (Thermo Fisher Scientific, Waltham, MA, cat. no. N200), washed 4 times, incubated with TMB (Thermo Fisher Scientific, Waltham, MA, cat. no. N301) for 5-10 minutes, followed by addition of ELISA Stop Solution (Invitrogen, Carlsbad, CA, cat. no. SS04). Absorbance 450 nm was measured.

Sequence of rh-α5β1 protein bound to human FN protein (P08648 42-894 limits assumed): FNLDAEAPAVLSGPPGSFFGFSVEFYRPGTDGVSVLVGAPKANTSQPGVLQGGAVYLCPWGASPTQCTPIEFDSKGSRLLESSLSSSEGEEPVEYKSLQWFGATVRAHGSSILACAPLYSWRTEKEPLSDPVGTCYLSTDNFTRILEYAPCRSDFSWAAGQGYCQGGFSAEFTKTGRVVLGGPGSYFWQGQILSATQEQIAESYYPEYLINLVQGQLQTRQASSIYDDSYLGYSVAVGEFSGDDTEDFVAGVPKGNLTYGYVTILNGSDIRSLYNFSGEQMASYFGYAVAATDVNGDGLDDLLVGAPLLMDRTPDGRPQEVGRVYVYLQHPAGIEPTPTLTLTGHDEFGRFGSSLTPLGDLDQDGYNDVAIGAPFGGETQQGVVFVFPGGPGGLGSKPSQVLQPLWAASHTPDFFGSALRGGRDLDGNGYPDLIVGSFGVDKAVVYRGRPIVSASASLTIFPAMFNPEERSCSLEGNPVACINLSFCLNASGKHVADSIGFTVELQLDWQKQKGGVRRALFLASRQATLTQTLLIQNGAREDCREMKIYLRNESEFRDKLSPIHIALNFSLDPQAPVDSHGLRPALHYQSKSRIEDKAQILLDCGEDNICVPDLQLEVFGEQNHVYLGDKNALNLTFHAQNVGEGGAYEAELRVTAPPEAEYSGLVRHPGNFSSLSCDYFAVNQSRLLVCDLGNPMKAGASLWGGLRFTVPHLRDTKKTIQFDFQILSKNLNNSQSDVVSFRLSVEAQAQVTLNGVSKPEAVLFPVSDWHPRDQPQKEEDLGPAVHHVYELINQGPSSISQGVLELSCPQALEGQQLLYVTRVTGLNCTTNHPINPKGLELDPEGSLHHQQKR
Sequence of rh-α5β1 protein bound to human FN protein (P08648 895-995 limits assumed): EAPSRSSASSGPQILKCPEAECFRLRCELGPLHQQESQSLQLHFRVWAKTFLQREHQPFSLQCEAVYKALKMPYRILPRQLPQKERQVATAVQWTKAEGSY
Sequence of rh-α5β1 protein bound to human FN protein (P05556 21-728 limits assumed): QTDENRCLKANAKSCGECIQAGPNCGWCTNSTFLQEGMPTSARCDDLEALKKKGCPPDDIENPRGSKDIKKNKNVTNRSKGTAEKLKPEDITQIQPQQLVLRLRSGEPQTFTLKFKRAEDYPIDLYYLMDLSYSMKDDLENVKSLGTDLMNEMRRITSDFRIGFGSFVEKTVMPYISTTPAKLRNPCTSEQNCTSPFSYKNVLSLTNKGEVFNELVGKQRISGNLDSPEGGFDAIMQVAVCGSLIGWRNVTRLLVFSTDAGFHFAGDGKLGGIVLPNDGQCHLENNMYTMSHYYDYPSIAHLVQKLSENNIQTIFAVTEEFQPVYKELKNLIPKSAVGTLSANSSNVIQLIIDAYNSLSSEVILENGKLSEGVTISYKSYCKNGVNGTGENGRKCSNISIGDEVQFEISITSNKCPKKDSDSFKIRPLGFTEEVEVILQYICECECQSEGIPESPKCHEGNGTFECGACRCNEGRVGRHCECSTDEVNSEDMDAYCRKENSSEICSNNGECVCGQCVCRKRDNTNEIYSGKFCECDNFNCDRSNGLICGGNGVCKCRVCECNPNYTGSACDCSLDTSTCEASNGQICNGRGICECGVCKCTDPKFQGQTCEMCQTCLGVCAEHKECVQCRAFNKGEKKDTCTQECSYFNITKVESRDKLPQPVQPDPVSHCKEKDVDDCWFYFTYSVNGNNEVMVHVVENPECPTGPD
T1 sequence (P08648 42-894 limits assumed): as the sequence (P08648 42-894 limits assumed) above
T1 sequence (P08648 895-995 limits assumed): as the sequence (P08648 895-995 limits assumed) above
T1 sequence (P05556 21-728 limits assumed): as the sequence (P05556 21-728 limits assumed) above

Molecule	effect on dissociation of rh-α5β1 protein bound to FN (SPR response) [1]	Selected Human α5 Specific [2]
A-15B08: anti-α5β1 antibody, VH SEQ ID NO:25, VL SEQ ID NO:26; tested as mouse hybridoma antibody and as human IgG4 chimera (antibody, V domains shown, A-15B08 VH Sequence; A-15B08 VL Sequence, tested as mouse hybridoma antibody and as human IgG4 chimera) VH: QVQLKESGPGLVAPSQSLSITCTISGFSLTSYGVHWVRQPPGKGLEWLVVIWSDGSTTYNSTLKSRLSISKDNSKSQVFFKMNSLQTDDTAMYYCARHYDYDGDWFAYWGQGTLVTVSA VL: QIVLTQSPAIMSASLGERVTMTCTASSRVSSNSLHWYQQKPGSSPKLWIYSTSNLASGVPARFSGSGSGTSYSLTISSMEAEDAATYYCHQYLRSPPTFGGGTKLEIK	rapid dissociation of the FN-α5β1 complex	–
A2-7A05: anti-α5β1 antibody, VH SEQ ID NO:77, VL SEQ ID NO:78; tested as mouse hybridoma antibody and as human IgG4 chimera (antibody, V domains shown, A2-7A05 VH Sequence; A2-7A05 VL Sequence, tested as mouse hybridoma antibody and as human IgG4 chimera) VH: QVQLQQPGAELVKPGASVKLSCKASGYTFTIYWINWVKQRPGQGLEWIGKIYPGSISTDYNEKFKSKATLTVDTSSSTAYMQLSSLTSDDSAVYYCAITGTGGLAYWGQGTLVTVSA VL: ENVLTQSPAIMSASLGEKVTMTCRASSSVNYMYWYQQKSDASPKLWIYFTSSLAPGVPGRFSGSGSGNSYSLTISTMEGEDAATYYCQQFTTSPFTFGSGTKLEIK	partial dissociation at a slower rate	Yes
